Source: PMC6286387, “Physical and thermodynamic characterization of the rice gibberellin receptor/gibberellin/DELLA protein complex” (Scientific Reports, 2018)

Tests used:
[1] = molecular target: SLR1(M1-E104), Trx-free (rice (Oryza sativa)) (UniProt Q7G7J6); assay: ITC; 10 μl aliquants of 400 μM OsGID1/GA3 into 1.4482 ml of 50 μM SLR1 variant, 30 °C, 20 mM sodium phosphate (pH 7.5), 150 mM NaCl, 2.0 mM β-ME, 0.1 mM GA3
[2] = molecular target: T1, SLR1(M28-A112) ΔSPACE(G69-F83) (rice (Oryza sativa), UniProt Q7G7J6 28-112, ΔSPACE(G69-F83)); assay: as above; settings: both partners purified
T1 construct: DELLA protein SLR1 of rice (Oryza sativa), residues M28-A112 with G69-F83 deleted; Named without Trx in the ITC experiments; removal of the tag is told in general in the methods; also called SLR(M28-A112)ΔSPACE; source: E. coli, purified (HiTrap Chelating, Superdex 200; thrombin, HiTrap Chelating, Superdex 75); not shown: Trx, N-terminal, cleaved; His6, N-terminal, cleaved
T1 sequence (looked up): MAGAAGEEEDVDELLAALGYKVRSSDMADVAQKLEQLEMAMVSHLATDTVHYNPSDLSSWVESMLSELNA

SLR1(M1-A172) = molecular target: T2, SLR1(M1-A172) (rice (Oryza sativa), UniProt Q7G7J6 1-172); assay: as above; settings: both partners purified
T2 construct: DELLA protein SLR1 of rice (Oryza sativa), residues M1-A172; Named without Trx in the ITC experiments; removal of the tag is told in general in the methods; also called SLR(M1-A172); source: E. coli, purified (HiTrap Chelating, Superdex 200; thrombin, HiTrap Chelating, Superdex 75); not shown: Trx, N-terminal, cleaved; His6, N-terminal, cleaved
T2 sequence (looked up): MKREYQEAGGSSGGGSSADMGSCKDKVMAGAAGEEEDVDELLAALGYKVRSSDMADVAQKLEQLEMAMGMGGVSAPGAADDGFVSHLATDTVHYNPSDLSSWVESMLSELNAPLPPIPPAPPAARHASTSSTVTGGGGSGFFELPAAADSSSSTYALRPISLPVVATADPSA

SLR1(M1-H327) = molecular target: T3, SLR1(M1-H327) (rice (Oryza sativa), UniProt Q7G7J6 1-327); assay: as above; settings: both partners purified
T3 construct: DELLA protein SLR1 of rice (Oryza sativa), residues M1-H327; Named without Trx in the ITC experiments; removal of the tag is told in general in the methods; also called SLR(M1-H327); source: E. coli, purified (HiTrap Chelating, Superdex 200; thrombin, HiTrap Chelating, Superdex 75); not shown: Trx, N-terminal, cleaved; His6, N-terminal, cleaved
T3 sequence (looked up): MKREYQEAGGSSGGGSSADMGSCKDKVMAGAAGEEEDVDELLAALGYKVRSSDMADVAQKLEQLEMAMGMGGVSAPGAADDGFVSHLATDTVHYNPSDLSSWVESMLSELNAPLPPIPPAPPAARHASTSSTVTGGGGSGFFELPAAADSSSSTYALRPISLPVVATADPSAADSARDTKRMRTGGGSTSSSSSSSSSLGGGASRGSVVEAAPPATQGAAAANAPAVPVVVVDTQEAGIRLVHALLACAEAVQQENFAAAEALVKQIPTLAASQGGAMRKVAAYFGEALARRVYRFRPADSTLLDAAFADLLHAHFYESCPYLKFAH

SLR1(M28-A112), Trx-free [3] = molecular target: T4, SLR1(M28-A112), Trx-free (rice (Oryza sativa), UniProt Q7G7J6 28-112); assay: as above; settings: both partners purified
T4 construct: DELLA protein SLR1 of rice (Oryza sativa), residues M28-A112; 13C/15N-labelled for the NMR spectra; also called SLR(M28-A112); source: E. coli, purified (HiTrap Chelating, Superdex 200; thrombin, HiTrap Chelating, Superdex 75); not shown: Trx, N-terminal, cleaved; His6, N-terminal, cleaved
T4 sequence (looked up): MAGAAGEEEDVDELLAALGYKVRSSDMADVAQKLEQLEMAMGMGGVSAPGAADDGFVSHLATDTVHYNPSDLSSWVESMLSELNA

[4] = molecular target: the molecule itself; assay: SAXS; Trx-free proteins, about 3.0 mg/ml, 20 mM sodium phosphate (pH 7.5), 150 mM NaCl, 2.0 mM β-ME, 0.1 mM GA3, 25 °C; mass from I(0), Guinier and Kratky plots
SLR1(M28-A112), Trx-free [5] = molecular target: T4, SLR1(M28-A112), Trx-free; assay: as above; settings: both partners purified
SLR1(M28-A112), Trx-free [6] = molecular target: T4, SLR1(M28-A112), Trx-free; assay: ITC; 10 μl aliquants of 400 μM OsGID1/GA3 into 1.4482 ml of 50 μM SLR1 variant, 30 °C, 20 mM sodium phosphate (pH 7.5), 150 mM NaCl, 2.0 mM β-ME, 0.1 mM GA3; settings: both partners purified; remark: listed apart in the source

B1: OsGID1 (rice gibberellin receptor GID1), Trx-free, used as the OsGID1/GA3 complex (receptor, rice (Oryza sativa), UniProt Q6L545 1-354, looked up)
chain: MAGSDEVNRNECKTVVPLHTWVLISNFKLSYNILRRADGTFERDLGEYLDRRVPANARPLEGVSSFDHIIDQSVGLEVRIYRAAAEGDAEEGAAAVTRPILEFLTDAPAAEPFPVIIFFHGGSFVHSSASSTIYDSLCRRFVKLSKGVVVSVNYRRAPEHRYPCAYDDGWTALKWVMSQPFMRSGGDAQARVFLSGDSSGGNIAHHVAVRAADEGVKVCGNILLNAMFGGTERTESERRLDGKYFVTLQDRDWYWKAYLPEDADRDHPACNPFGPNGRRLGGLPFAKSLIIVSGLDLTCDRQLAYADALREDGHHVKVVQCENATVGFYLLPNTVHYHEVMEEISDFLNANLYY
notes: Gibberellin receptor GID1 of rice (Oryza sativa); theoretical MW of the dimer printed as 79.2 kDa; The printed mass (39.6 kDa a monomer) fits the whole protein; source: recombinant, purified
- Ka [1]: 11000 M⁻¹
- dH [1]: -8.4 kcal/mol
- stoichiometry N [1]: 1
- dH [2]: -8.3 kcal/mol
- stoichiometry N [2]: 0.5
- dH (SLR1(M1-A172)): -6.8 kcal/mol
- stoichiometry N (SLR1(M1-A172)): 1.06
- dH (SLR1(M1-H327)): -7.1 kcal/mol
- stoichiometry N (SLR1(M1-H327)): 1.01
- dH (SLR1(M28-A112), Trx-free [3]): -6.9 kcal/mol
- stoichiometry N (SLR1(M28-A112), Trx-free [3]): 1.06
- stoichiometry N [4]: 2
- stoichiometry N (SLR1(M28-A112), Trx-free [5]): 1
- dH (SLR1(M28-A112), Trx-free [6]): -8.44 kcal/mol
- stoichiometry N (SLR1(M28-A112), Trx-free [6]): 0.92
